Positions count from the first letter of the chain named. Ends that are not written are not given here.

The target in assay [1] is recombinant αvβ8 ectodomain (Homo sapiens (Human), UniProt P06756 31-992; P26012 43-684). As to the kind of experiment: ELISA, Mab coated at the given concentration, αvβ8 ectodomain 0.5 µg/ml, detected with biotinylated anti-αv 8B8 and SA-HRP; specific binding minus SV5 control.
Text: As a negative control, some wells were coated with anti-SV5 at the same concentrations. Non-specific binding sites were blocked with BSA.
The target in assay [2] is T1, recombinant human integrin αvβ6 (human, UniProt P18564 22-707).
T1 construct: also called αvβ6 (R&D systems); αvβ6 receptor
T1 sequence (chain, as listed by the source limits assumed, chain 1 of 2): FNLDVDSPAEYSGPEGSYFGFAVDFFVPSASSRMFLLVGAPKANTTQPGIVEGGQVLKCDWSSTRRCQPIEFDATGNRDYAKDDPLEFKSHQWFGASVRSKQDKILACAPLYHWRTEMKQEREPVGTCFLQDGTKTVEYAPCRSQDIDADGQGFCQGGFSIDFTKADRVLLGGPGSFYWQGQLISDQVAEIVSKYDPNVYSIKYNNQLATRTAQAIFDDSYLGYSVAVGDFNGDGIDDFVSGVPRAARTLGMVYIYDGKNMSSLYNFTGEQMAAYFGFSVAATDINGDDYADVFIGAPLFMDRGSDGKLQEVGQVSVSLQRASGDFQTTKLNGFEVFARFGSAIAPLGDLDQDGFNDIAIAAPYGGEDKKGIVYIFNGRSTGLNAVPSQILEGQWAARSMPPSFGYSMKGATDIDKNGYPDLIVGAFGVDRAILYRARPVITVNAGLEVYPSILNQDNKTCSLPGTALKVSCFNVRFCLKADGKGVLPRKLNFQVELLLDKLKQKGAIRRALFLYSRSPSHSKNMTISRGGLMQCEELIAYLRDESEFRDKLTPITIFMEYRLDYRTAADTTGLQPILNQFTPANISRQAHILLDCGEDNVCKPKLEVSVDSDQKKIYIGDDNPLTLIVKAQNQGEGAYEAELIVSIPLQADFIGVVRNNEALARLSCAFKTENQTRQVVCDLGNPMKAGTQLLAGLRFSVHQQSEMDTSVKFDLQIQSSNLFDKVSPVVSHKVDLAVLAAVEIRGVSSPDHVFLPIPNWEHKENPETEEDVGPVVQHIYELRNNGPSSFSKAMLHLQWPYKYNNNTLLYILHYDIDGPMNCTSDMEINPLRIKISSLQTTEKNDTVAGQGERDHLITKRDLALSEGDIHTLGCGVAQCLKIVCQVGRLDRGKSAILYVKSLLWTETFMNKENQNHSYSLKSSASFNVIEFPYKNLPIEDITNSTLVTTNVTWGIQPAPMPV
T1 sequence (P18564 22-707 limits assumed, chain 2 of 2): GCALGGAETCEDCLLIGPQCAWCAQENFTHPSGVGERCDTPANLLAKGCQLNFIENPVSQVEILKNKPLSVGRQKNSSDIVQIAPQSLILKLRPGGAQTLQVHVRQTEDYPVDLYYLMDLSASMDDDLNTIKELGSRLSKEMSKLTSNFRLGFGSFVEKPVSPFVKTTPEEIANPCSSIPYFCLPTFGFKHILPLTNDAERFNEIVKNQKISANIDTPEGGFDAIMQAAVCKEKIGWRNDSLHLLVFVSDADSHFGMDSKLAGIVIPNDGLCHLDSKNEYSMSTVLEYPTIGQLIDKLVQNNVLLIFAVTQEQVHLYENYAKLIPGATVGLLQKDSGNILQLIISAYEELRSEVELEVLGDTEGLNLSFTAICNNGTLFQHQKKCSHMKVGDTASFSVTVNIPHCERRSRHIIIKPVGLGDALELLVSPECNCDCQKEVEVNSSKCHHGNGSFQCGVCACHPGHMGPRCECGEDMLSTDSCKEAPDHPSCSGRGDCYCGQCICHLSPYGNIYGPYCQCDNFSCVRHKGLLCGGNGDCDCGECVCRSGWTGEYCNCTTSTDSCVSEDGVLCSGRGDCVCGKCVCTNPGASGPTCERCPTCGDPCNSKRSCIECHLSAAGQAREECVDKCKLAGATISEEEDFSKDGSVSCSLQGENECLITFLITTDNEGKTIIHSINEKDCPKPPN
Put plainly: blocking of adhesion (A590) of Cho cells expressing GARP/LTGFB1 to immobilized αvβ6; antibody concentration varied; unit taken from the axis log[Agonist], (ug/ml).
Text: (§1) Here, Cho3.2.8.1 cells were transfected with GARP and LTGFB1.

The target in assay [3] is T1, recombinant human integrin αvβ6. As to the kind of experiment: cell-based or functional assay.
Assay [4] has as its target T2, recombinant human integrin αvβ8 (human, UniProt P06756 31-992; P26012 43-684).
T2 construct: also called Human Integrin alpha V beta 8; purified recombinant αvβ8
As to the kind of experiment: blocking of adhesion (A590) of Cho cells expressing GARP/LTGFB1 to immobilized αvβ8; antibody concentration varied; unit taken from the axis log[Agonist], (ug/ml).
Text: as §1

Assay [5] addresses T1, recombinant human integrin αvβ6. As to the kind of experiment: competition of RGD3 with 3G9 for binding to αvβ6 (sheet title: modest cross-competition); y axis 'Relative Inhibition of avb6 binding to TGFb3 peptide'; signal falls from about 1.0 only to about 0.55 at log 4.
For assay [6], the target named is T2, recombinant human integrin αvβ8. Put plainly: ELISA: integrin coated on plate, supernatant of transfected 293 cells at 1/10 dilution, anti-mouse IgG-HRP; score normalized to expression.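 Note: scale runs from 0 (no apparent binding) to 4 (robust binding), with scores adjusted for clone protein expression as determined by a murine IgG ELISA.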
Text: (§2) Binding was quantified by intensity as 0-4 (0 representing no apparent binding; 4 representing robust binding) and results normalized to expression.
Assay [7] concerns the target T1, recombinant human integrin αvβ6. As to the kind of experiment: ELISA, Mab coated at 5 ug/ml, receptor 0.5 µg/ml in Mg buffer (1 mM Ca++ and 1 mM Mg++), detected with biotinylated anti-αv 8B8.
Experimental: (§3) Binding in EDTA containing buffer defines cation-dependence because EDTA binds to Ca⁺⁺ and Mg′. Magnesium cation buffers contains 1 mM Ca⁺⁺ and 1 mM Mg⁺⁺. Here, the results are relative to anti-av, clone 11D12V2. All antibodies were coated on ELISA plates at 5 μg/ml.
The target in assay [8] is T2, recombinant human integrin αvβ8. The assay is described as above.
Experimental: as §3
Assay [9] shares this target. Put plainly: cell-based or functional assay.
Assay [10] has as its target T3, recombinant human integrin αvβ3 (human, UniProt P05106 27-718).
T3 construct: Bought; also called αvβ3 (R&D systems)
As to the kind of experiment: ELISA on coated recombinant human integrin; 0 = no apparent binding.
Text: as §2

Assay [11] concerns the target T4, recombinant human integrin αvβ1 (human, UniProt P05556 21-728).
T4 construct: Bought; also called αvβ1 (R&D systems)
The description is as above.
Text: as §2

Assay [12] concerns the target T5, recombinant human integrin αvβ5 (human, UniProt P18084 24-719).
T5 construct: Bought; also called αvβ5 (R&D systems)
Described as above.
Text: as §2

Assay [13] deals with T1, recombinant human integrin αvβ6. Put plainly: ELISA, integrin coated, rabbit IgG detected with anti-rabbit HRP; relative to anti-αv (8B8) control wells.
Experimental: (§4) All integrins were coated on ELISA plates at 2 mg/ml, blocked with BSA, and antibodies were allowed to bind.
Assay [14] addresses T3, recombinant human integrin αvβ3. The description is as above.
Experimental: as §4
Assay [15] addresses T5, recombinant human integrin αvβ5. Described as above.
Experimental: as §4
The target in assay [16] is T1, recombinant human integrin αvβ6. Put plainly: ELISA, Mab coated at 5 ug/ml, αvβ6 receptor 0.5 µg/ml, detected with biotinylated anti-αv 8B8; percent of binding to anti-αv clone 11D12V2.
Experimental: as §3
Assay [17] deals with T6, truncated secreted form of αvβ8 fused in frame to alkaline phosphatase.
T6 construct: Printed: truncated secreted form; also called alkaline phosphatase (AP) αvβ8 fusion protein; secreted αvβ8
As to the kind of experiment: ELISA: inhibition of binding of secreted αvβ8-alkaline phosphatase to coated TGF-β3 RGD peptide (1 µg/ml), OD405; fitted value in the table under the graph; unit from the axis and paragraph 229.

Assay [18] concerns the target T2, recombinant human integrin αvβ8. As to the kind of experiment: Kinetic Exclusion Assay (KinExA), C6D4 as murine IgG2a.
Assay [19] addresses T4, recombinant human integrin αvβ1. Put plainly: ELISA, integrin coated, rabbit IgG detected with anti-rabbit HRP; relative to anti-αv (8B8) control wells.
Experimental: as §4
Assay [20] addresses T2, recombinant human integrin αvβ8. As to the kind of experiment: scFv yeast display selection from random mutation libraries of clones 29 and 44.
The target is the same in assay [21]. Put plainly: scFv yeast display selection.
Assay [22] concerns the target T1, recombinant human integrin αvβ6. Put plainly: ELISA on coated recombinant human integrin; 0 = no apparent binding.
Text: as §2
In assay [23] the target is T7, human integrin αvβ8 on CHO cells (human, UniProt P06756 31-1048; P26012 43-769).
T7 construct: also called CHO cells expressing αvβ8; CHO lec cells stably transfected with αvβ8
Put plainly: cell adhesion to coated peptide, crystal violet, signal above mock transfected cells (FIG. 25).

T3 sequence (chain, as listed by the source limits assumed, chain 1 of 2): as the sequence (chain, as listed by the source limits assumed, chain 1 of 2) above
T3 sequence (P05106 27-718 limits assumed, chain 2 of 2): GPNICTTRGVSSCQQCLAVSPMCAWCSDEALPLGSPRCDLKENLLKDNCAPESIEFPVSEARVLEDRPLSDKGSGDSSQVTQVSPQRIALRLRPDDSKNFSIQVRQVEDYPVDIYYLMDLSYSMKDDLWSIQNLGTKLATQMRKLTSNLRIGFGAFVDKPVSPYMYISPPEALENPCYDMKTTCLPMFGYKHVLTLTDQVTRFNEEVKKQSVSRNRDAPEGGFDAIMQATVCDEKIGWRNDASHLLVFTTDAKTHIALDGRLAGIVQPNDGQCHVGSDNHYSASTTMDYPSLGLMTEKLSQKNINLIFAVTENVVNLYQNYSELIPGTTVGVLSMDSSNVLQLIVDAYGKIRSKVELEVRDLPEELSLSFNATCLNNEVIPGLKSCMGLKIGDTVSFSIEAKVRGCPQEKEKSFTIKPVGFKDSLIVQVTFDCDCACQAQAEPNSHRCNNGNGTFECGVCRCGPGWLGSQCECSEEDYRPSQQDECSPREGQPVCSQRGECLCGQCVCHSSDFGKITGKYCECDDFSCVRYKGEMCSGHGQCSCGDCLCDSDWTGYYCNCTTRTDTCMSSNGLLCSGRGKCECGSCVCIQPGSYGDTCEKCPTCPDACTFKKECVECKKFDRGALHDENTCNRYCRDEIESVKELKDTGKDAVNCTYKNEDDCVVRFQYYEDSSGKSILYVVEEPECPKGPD
T2 sequence (P06756 31-992 limits assumed, chain 1 of 2): as the sequence (chain, as listed by the source limits assumed, chain 1 of 2) above
T2 sequence (P26012 43-684 limits assumed, chain 2 of 2): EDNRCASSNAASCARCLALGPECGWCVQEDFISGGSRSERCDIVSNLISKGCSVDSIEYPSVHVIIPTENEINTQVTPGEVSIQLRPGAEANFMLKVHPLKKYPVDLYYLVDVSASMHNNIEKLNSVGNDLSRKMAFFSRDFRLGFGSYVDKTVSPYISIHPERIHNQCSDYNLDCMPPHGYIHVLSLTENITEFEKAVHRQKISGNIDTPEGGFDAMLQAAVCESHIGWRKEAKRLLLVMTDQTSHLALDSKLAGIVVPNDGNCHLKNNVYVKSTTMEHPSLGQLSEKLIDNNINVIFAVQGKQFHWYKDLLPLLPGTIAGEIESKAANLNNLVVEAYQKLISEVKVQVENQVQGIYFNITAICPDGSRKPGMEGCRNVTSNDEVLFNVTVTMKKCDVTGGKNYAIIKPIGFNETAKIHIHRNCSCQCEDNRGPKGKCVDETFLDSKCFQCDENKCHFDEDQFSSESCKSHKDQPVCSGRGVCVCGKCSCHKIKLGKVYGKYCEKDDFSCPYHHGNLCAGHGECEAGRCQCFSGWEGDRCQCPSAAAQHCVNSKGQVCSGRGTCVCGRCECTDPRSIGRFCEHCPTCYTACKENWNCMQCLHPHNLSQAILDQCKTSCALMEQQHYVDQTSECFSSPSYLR

B1: Humanized C6D4-RGD3 (HuC6D4-RGD3) (antibody, V domains shown)
VH: QIQLVQSGAEVKKPGASVKISCKASGYTFTDYSMHWVRQAPGQGLEWVARINTETGEPTFADDFRGRFTVTLDTSTSTAYLEIRSLRSDDTAVYFCAIFYYGRDTWGQGTTLTVSS
VL: EIVMTQSPATLSVSPGERVTMSCKSSQSLLGRGDLGRLKKNALAWYQQKPGQAPRLLIYWASTRESGVPARFSGSGSGTEFTLTISSVQSEDFAVYYCKQSYNLLSFGQGTVLEIKR
notes: Frameworks and CH1 are human; hinge and CH2-3 are mouse; also called humanized RGD3
With B1, in assay [1], the binding result was “binds”.

B2: C6D4-RGD3 (antibody, V domains shown)
VH: QIQLLQSGPELKKPGETVKISCKASGYTFTDYSMHWVKQAPGKGLKWVARINTETGEPTFADDFRGRFAVSLETSASTAYLQINNLKNEDTATYFCAIFYYGRDSWGQGTTLTVSS
VL: DIVMTQSPSSLAVSAGEKVTMSCKSSQSLLGRGDLGRLKKNALAWYQQKPGQSPRLLIYWASTRESGVPDRFTGSGSGTDFTLTISSVQAEDLAVYYCKQSYNLLSFGAGTKLELKR
notes: also called CD64-RGD3; C6 / RGD3
Consider B2, for which the figures for the EC50 in assay [2] and in assay [4] were 0.479 µg/mL and 1.19 µg/mL, respectively. For the same molecule, in assay [3], the “EC50 of inhibition of TGF-β activation (TMLC luciferase reporter) of GARP/LTGFB1 Cho cells on immobilized αvβ6; unit from the axis” value was 0.412 µg/mL. Also, the LogEC50 in assay [5] was 3.78 Log10 (ng/ml). Also, the “binding intensity score (0-4)” value in assay [6] is 4 score 0-4. Moreover, the figures for the “Binding in Mg buffer relative to clone 68 (% compared with binding to anti-av clone 11D12V2)” value in assay [7] and in assay [8] were 120% and 98%, respectively. Besides, in assay [9], the “EC50 of inhibition of TGF-β activation (TMLC luciferase reporter) of GARP/LTGFB1 Cho cells on immobilized αvβ8; unit from the axis” value turned out to be 0.854 µg/mL. Further, the binding result in [10], in assay [11] and in [12] was “no binding (tested: supernatant at 1/10 dilution)” in each case.

B3: C6D4 as rabbit IgG (C6VH expressed with D4 Vk) (antibody, V domains shown)
VH: B2 VH
VL: DIVMTQSPSSLAVSAGEKVTMSCKSSQSLLNSRTRKNYLAWYQQKPGQSPRLLIYWASTRESGVPDRFTGSGSGTDFTLTISSVQAEDLAVYYCKQSYNLLSFGAGTKLELKR
notes: also called wildtype C6D4
Consider B3, for which the binding result in assay [13], in assay [14] and in assay [15] was “no binding” each time.

B4: C6D4 (composite antibody of C6 VH and D4 VK; murine IgG2a) (antibody, V domains shown)
VH: B2 VH
VL: B3 VL
notes: also called C6D4 murine IgG2a; Mab C6D4
With B4, the EC50 in [4] was found to be 1.2 µg/mL. Also, in assay [6], the “binding intensity score (0-4)” value came to 4 score 0-4. Further, the binding result in assay [16] is recorded as “no binding (tested: 5 ug/ml (coated Mab))”; in assay [10], “no binding (tested: supernatant at 1/10 dilution)”; in assay [11], “no binding (tested: supernatant at 1/10 dilution)”; in assay [12], “no binding (tested: supernatant at 1/10 dilution)”. The “Binding in Mg buffer relative to clone 68 (% compared with binding to anti-av clone 11D12V2)” value in assay [8] was 103%. The “EC50 of inhibition of TGF-β activation (TMLC luciferase reporter) of GARP/LTGFB1 Cho cells on immobilized αvβ8; unit from the axis” value in assay [9] amounted to 1.04 µg/mL. For the same molecule, the IC50 in assay [17] came out at 0.494 µg/mL. The Kd in assay [18] came out at 0.832 nM.

B5: C6D4-RGD3 as rabbit IgG (C6VH expressed with the RGD3 mutant Vk) (antibody, V domains shown)
VH: B2 VH
VL: B2 VL
notes: also called C6D4-RGD3 mutant
For the molecule B5, the binding result in [14], in assay [19] and in [15] was “no binding” throughout.

B6: clone C6 (scFv, yeast display) (scFv, V domains shown)
VH: B2 VH with T111A
VL: B3 VL with T5S, S102T, R113A
notes: scFv on yeast; also called A5=C6
For the molecule B6, the binding result in assay [20] was “binds”.

B7: clone 44 (scFv, yeast display) (scFv, V domains shown)
VH: B2 VH with F99Y
VL: B3 VL with T5S, A86D, S102T, R113A
notes: scFv on yeast
With B7, the binding result in assay [21] is given as “binds”.

B8: C6 VH / RGD2 Vk murine IgG (antibody, V domains shown)
VH: B2 VH
VL: DIVMTQSPSSLAVSAGEKVTMSCKSSQSLLNSGRGDLGNALAWYQQKPGQSPRLLIYWASTRESGVPDRFTGSGSGTDFTLTISSVQAEDLAVYYCKQSYNLLSFGAGTKLELKR
notes: Murine IgG, supernatant of 293 cells; CDRL1 of the C6D4 murine IgG vector replaced by the printed loop, VH not altered; also called C6D4-RGD2; C6RGD2
For B8, in assay [6], the “binding intensity score (0-4)” value is 2 score 0-4. For the same molecule, the binding result in [22], in [10], in assay [11] and in assay [12] was “no binding (tested: supernatant at 1/10 dilution)” each time.

B9: clone 29 (scFv, yeast display) (scFv, V domains shown)
VH: B2 VH with F99Y
VL: B3 VL with T5S, S102T, R113A
notes: scFv on yeast
As to B9, in [21], the binding result is “binds”.

B10: C6 VH / RGD1 Vk murine IgG (antibody, V domains shown)
VH: B2 VH
VL: B3 VL with N31G, S32R, R33G, T34D, R35L, K36G, Y38A
notes: Murine IgG, supernatant of 293 cells; CDRL1 swap into the C6D4 murine IgG vector, VH not altered; also called C6D4-RGD1; C6RGD1
On to B10, for which the “binding intensity score (0-4)” value in [6] amounted to 1 score 0-4. Besides, the binding result in assay [22], in assay [10], in assay [11] and in assay [12] was “no binding (tested: supernatant at 1/10 dilution)” in each case.

B11: TGF-β3 RGD multiple antigen presenting peptide DDHGRGDLGRLK (peptide)
peptide: DDHGRGDLGRLK
modifications: also: multiple antigen presenting peptide on 8-lysine core (branched)
notes: Branched peptide on a lysine core; also called L-TGF-b3 peptide; TGFb3 peptide
On to B11, for which the binding result in assay [23] is “binds”.

The record behind these values is patent US20210230279A1 (University of California, published 2021).
